Target: Ste2 GPCR (Saccharomyces cerevisiae) (UniProt D6VTK4)
Assay: cell-based or functional assay

Sequence of Ste2 GPCR (Saccharomyces cerevisiae) (D6VTK4 whole entry): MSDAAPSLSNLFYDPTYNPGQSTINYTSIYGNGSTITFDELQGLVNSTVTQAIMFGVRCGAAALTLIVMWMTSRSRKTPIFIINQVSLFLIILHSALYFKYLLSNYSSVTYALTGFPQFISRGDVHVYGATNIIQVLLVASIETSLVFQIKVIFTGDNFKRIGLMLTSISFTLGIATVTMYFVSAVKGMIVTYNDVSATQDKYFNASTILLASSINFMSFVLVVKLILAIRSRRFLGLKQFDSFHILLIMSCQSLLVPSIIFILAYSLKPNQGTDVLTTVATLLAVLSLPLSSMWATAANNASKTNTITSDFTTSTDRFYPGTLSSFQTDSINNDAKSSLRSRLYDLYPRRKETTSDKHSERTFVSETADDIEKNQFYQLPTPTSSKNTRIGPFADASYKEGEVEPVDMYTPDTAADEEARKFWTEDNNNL

Work on “α-factor (from UniProt P01149 90-102) (peptide)” yielded a GFP max (AU), PFig1-GFP(m) of 7570 AU, a GFP max (AU), PFig1-GFP(s) of 2310 AU and a GFP max (AU), PFus1-GFP(m) of 20500 AU. The GFP max (AU), PFus1-GFP(s) was 4560 AU, the KM (chemical concentration at half maximal signal), GFP reporter PFig1-GFP(m), flow cytometry was 0.02 µM and the KM (chemical concentration at half maximal signal), GFP reporter PFig1-GFP(s), flow cytometry was 0.03 µM. For the same substance, the KM (chemical concentration at half maximal signal), GFP reporter PFus1-GFP(m), flow cytometry was 0.02 µM and the KM (chemical concentration at half maximal signal), GFP reporter PFus1-GFP(s), flow cytometry was 0.02 µM.

Source: patent publication US20180187272A1
